This is an account of results in paper PMC6662836.

The test system of data set [1] is S129-phospho-alpha-synuclein (human). Description: EMSA. The settings on record: 57 uM stated for GST in the comparison; 10% gel; N=3; EMSA: 20 ng DNA in 20 uL, 94 mM Tris-Cl pH 8.0, 25 mM NaCl, 1 mM EDTA, 5% ficoll; on ice 20 min then RT 30 min; 10% or 6% polyacrylamide TBE gel, 100 V ….
Data set [2] deals with alpha-synuclein (human). Description: EMSA. The settings on record: 57 uM protein; 10% gel; N=3; EMSA: 20 ng DNA in 20 uL, 94 mM Tris-Cl pH 8.0, 25 mM NaCl, 1 mM EDTA, 5% ficoll; on ice 20 min then RT 30 min; 10% or 6% polyacrylamide TBE gel, 100 V ….

Consider 300 bp dsDNA, for which the results for the binding signal (fraction shifted) in data set [1] and in data set [2] were 0.58 and 0.86, respectively.
